For 38 variants, abundance fitness results are on record in the Human Domainome abundance scans (Beltran et al. 2025).

Sequences and labels used below:
B1: Far upstream element-binding protein 2, residues 142 to 214; numbered along this chain, Q92945 (parent)
chain: RTSMTEEYRVPDGMVGLIIGRGGEQINKIQQDSGCKVQISPDSGGLPERSVSLTGAPESVQKAKMMLDDIVSR

± gives the uncertainty stated by the source.

The variants in this data set derive from B1. The data set is described as follows: abundance fitness (aPCA) (normalised: wild type 0, dead -1); higher = more abundant; growth selection in yeast, the domain comes from the species named. The conditions noted are these: Homo sapiens.
Take RTSMTEEYRVPDGMVGLIIGRGGEQINKIQQDSGCKVQISPDSGGLPERSVSLTGAPESVQKAKMMLNDIVSR: the abundance fitness was -0.007 ± 0.061. For the variant RTSMTEEYRVPDGMVGLIIGRGGEQINKIQQDSGCKVQISPDSGGLPERSVSLTGAPESVQKAKMMLEDIVSR, the abundance fitness is -0.06 ± 0.049. For the variant RTSMTEEYRVPDGMVGLIIGRGGEQINKIQQDSGCKVQISPDSGGLPERSVSLTGAPESVQKAKMMLHDIVSR, the abundance fitness is -0.241 ± 0.068. The result for RTSMTEEYRVPDGMVGLIIGRGGEQINKIQQDSGCKVQISPDSGGLPERSVSLTGAPESVQKAKMMLADIVSR reads -0.188 ± 0.044. With RTSMTEEYRVPDGMVGLIIGRGGEQINKIQQDSGCKVQISPDSGGLPERSVSLTGAPESVQKAKMMLLDIVSR, the abundance fitness is -0.564 ± 0.043. The result for RTSMTEEYRVPDGMVGLIIGRGGEQINKIQQDSGCKVQISPDSGGLPERSVSLTGAPESVQKAKMMLMDIVSR reads -0.337 ± 0.054; that for RTSMTEEYRVPDGMVGLIIGRGGEQINKIQQDSGCKVQISPDSGGLPERSVSLTGAPESVQKAKMMLIDIVSR, -0.494 ± 0.077; that for RTSMTEEYRVPDGMVGLIIGRGGEQINKIQQDSGCKVQISPDSGGLPERSVSLTGAPESVQKAKMMLFDIVSR, -0.469 ± 0.081. Turning to RTSMTEEYRVPDGMVGLIIGRGGEQINKIQQDSGCKVQISPDSGGLPERSVSLTGAPESVQKAKMMLPDIVSR, the abundance fitness is -0.882 ± 0.063. For the variant RTSMTEEYRVPDGMVGLIIGRGGEQINKIQQDSGCKVQISPDSGGLPERSVSLTGAPESVQKAKMMLGDIVSR, the abundance fitness was -0.144 ± 0.039. Regarding RTSMTEEYRVPDGMVGLIIGRGGEQINKIQQDSGCKVQISPDSGGLPERSVSLTGAPESVQKAKMMLCDIVSR, the abundance fitness was -0.372 ± 0.062. For RTSMTEEYRVPDGMVGLIIGRGGEQINKIQQDSGCKVQISPDSGGLPERSVSLTGAPESVQKAKMMLRDIVSR, the abundance fitness is -0.126 ± 0.036. Regarding RTSMTEEYRVPDGMVGLIIGRGGEQINKIQQDSGCKVQISPDSGGLPERSVSLTGAPESVQKAKMMLKDIVSR, the abundance fitness is -0.098 ± 0.053.

RTSMTEEYRVPDGMVGLIIGRGGEQINKIQQDSGCKVQISPDSGGLPERSVSLTGAPESVQKAKIMLDDIVSR: the abundance fitness is -0.025 ± 0.075. Take RTSMTEEYRVPDGMVGLIIGRGGEQINKIQQDSGCKVQISPDSGGLPERSVSLTGAPESVQKAKKMLDDIVSR: the abundance fitness amounted to 0.067 ± 0.059. As for RTSMTEEYRVPDGMVGLIIGRGGEQINKIQQDSGCKVQISPDSGGLPERSVSLTGAPESVQKAKNMLDDIVSR, the abundance fitness worked out at 0.017 ± 0.076. Regarding RTSMTEEYRVPDGMVGLIIGRGGEQINKIQQDSGCKVQISPDSGGLPERSVSLTGAPESVQKAKVMLDDIVSR, the abundance fitness was 0.008 ± 0.046. For RTSMTEEYRVPDGMVGLIIGRGGEQINKIQQDSGCKVQISPDSGGLPERSVSLTGAPESVQKAKSMLDDIVSR, the abundance fitness turned out to be 0.025 ± 0.044. In the case of RTSMTEEYRVPDGMVGLIIGRGGEQINKIQQDSGCKVQISPDSGGLPERSVSLTGAPESVQKAKDMLDDIVSR it was 0.02 ± 0.072; in that of RTSMTEEYRVPDGMVGLIIGRGGEQINKIQQDSGCKVQISPDSGGLPERSVSLTGAPESVQKAKWMLDDIVSR, -0.211 ± 0.05; in that of RTSMTEEYRVPDGMVGLIIGRGGEQINKIQQDSGCKVQISPDSGGLPERSVSLTGAPESVQKAKQMLDDIVSR, 0.131 ± 0.052.

As for RTSMTEEYRVPDGMVGLIIGRGGEQINKIQQDSGCKVQISPDSGGLPERSVSLTGAPESVQKAKAMLDDIVSR, the abundance fitness was -0.008 ± 0.043.

With RTSMTEEYRVPDGMVGLIIGRGGEQINKIQQDSGCKVQISPDSGGLPERSVSLTGAPESVQKAKRMLDDIVSR, the abundance fitness was -0.023 ± 0.037.

Take RTSMTEEYRVPDGMVGLIIGRGGEQINKIQQDSGCKVQISPDSGGLPERSVSLTGAPESVQKAKHMLDDIVSR: the abundance fitness is -0.066 ± 0.078.

On to RTSMTEEYRVPDGMVGLIIGRGGEQINKIQQDSGCKVQISPDSGGLPERSVSLTGAPESVQKAKCMLDDIVSR, for which the abundance fitness is 0.011 ± 0.061. As to RTSMTEEYRVPDGMVGLIIGRGGEQINKIQQDSGCKVQISPDSGGLPERSVSLTGAPESVQKAKFMLDDIVSR, the abundance fitness was -0.136 ± 0.089.

With RTSMTEEYRVPDGMVGLIIGRGGEQINKIQQDSGCKVQISPDSGGLPERSVSLTGAPESVQKAQMMLDDIVSR, the abundance fitness is -0.422 ± 0.063. As to RTSMTEEYRVPDGMVGLIIGRGGEQINKIQQDSGCKVQISPDSGGLPERSVSLTGAPESVQKAYMMLDDIVSR, the abundance fitness was -0.926 ± 0.12. In the case of RTSMTEEYRVPDGMVGLIIGRGGEQINKIQQDSGCKVQISPDSGGLPERSVSLTGAPESVQKAHMMLDDIVSR it was -0.442 ± 0.079. In the case of RTSMTEEYRVPDGMVGLIIGRGGEQINKIQQDSGCKVQISPDSGGLPERSVSLTGAPESVQKASMMLDDIVSR it was -0.553 ± 0.049; in that of RTSMTEEYRVPDGMVGLIIGRGGEQINKIQQDSGCKVQISPDSGGLPERSVSLTGAPESVQKAMMMLDDIVSR, -0.457 ± 0.062; in that of RTSMTEEYRVPDGMVGLIIGRGGEQINKIQQDSGCKVQISPDSGGLPERSVSLTGAPESVQKATMMLDDIVSR, -0.445 ± 0.058. Consider RTSMTEEYRVPDGMVGLIIGRGGEQINKIQQDSGCKVQISPDSGGLPERSVSLTGAPESVQKARMMLDDIVSR, for which the abundance fitness is -0.016 ± 0.037. In the case of RTSMTEEYRVPDGMVGLIIGRGGEQINKIQQDSGCKVQISPDSGGLPERSVSLTGAPESVQKAVMMLDDIVSR it was -0.465 ± 0.044; in that of RTSMTEEYRVPDGMVGLIIGRGGEQINKIQQDSGCKVQISPDSGGLPERSVSLTGAPESVQKAPMMLDDIVSR, -0.687 ± 0.07; in that of RTSMTEEYRVPDGMVGLIIGRGGEQINKIQQDSGCKVQISPDSGGLPERSVSLTGAPESVQKAIMMLDDIVSR, -0.275 ± 0.075. In the case of RTSMTEEYRVPDGMVGLIIGRGGEQINKIQQDSGCKVQISPDSGGLPERSVSLTGAPESVQKANMMLDDIVSR it was -0.703 ± 0.08. Consider RTSMTEEYRVPDGMVGLIIGRGGEQINKIQQDSGCKVQISPDSGGLPERSVSLTGAPESVQKAWMMLDDIVSR, for which the abundance fitness is -0.662 ± 0.049.
